Data: PMC8346688 (Redox Biology, 2021)

B1: BirA*-Flag-Prdx2 (natural protein, UniProt P32119 1-198, looked up)
chain: MASGNARIGKPAPDFKATAVVDGAFKEVKLSDYKGKYVVLFFYPLDFTFVCPTEIIAFSNRAEDFRKLGCEVLGVSVDSQFTHLAWINTPRKEGGLGPLNIPLLADVTRRLSEDYGVLKTDEGIAYRGLFIIDGKGVLRQITVNDLPVGRSVDEALRLVQAFQYTDEHGEVCPAGWKPGSDTIKPNVDDSKEYFSKHN
B2: His-Prdx2 (natural protein, UniProt P32119 1-198, looked up)
chain: MASGNARIGKPAPDFKATAVVDGAFKEVKLSDYKGKYVVLFFYPLDFTFVCPTEIIAFSNRAEDFRKLGCEVLGVSVDSQFTHLAWINTPRKEGGLGPLNIPLLADVTRRLSEDYGVLKTDEGIAYRGLFIIDGKGVLRQITVNDLPVGRSVDEALRLVQAFQYTDEHGEVCPAGWKPGSDTIKPNVDDSKEYFSKHN

Experiments:
native gel or EMSA = target: the molecule itself; experiment: native gel or EMSA
[1] = target: the molecule itself; experiment: non-reducing SDS-PAGE with western blot

Protein	stoichiometry N (native gel or EMSA)	stoichiometry N [1]
B1	10	2
B2	10	2
